# Assay results published in patent publication US20070087986A1, “Compositions and methods for enhancing immunity by chemoattractant adjuvants” (priority 2004, published 2007).
# Non-standard residues stand in square brackets, D forms with d. No end group written: not given here.
# B1: mC5a: chemoattractant mC5a (SEQ ID NO: 62) (protein, listed as Homo sapiens)
# chain: NLHLLRQKIEEQAAKYKHSVPKKCCYDGARVNFYETCEERVARVTIGPLCIRAFNECCTIANKIRKESPHKPVQLGR
# Key:
# FPRL1 = molecular target: T1, FPRL1 (Homo sapiens, UniProt P25090); test: FPRL1 activity of SHAAGtide and truncated and other variants; settings: in words: high, moderate, low
# T1 sequence (P25090 1-351): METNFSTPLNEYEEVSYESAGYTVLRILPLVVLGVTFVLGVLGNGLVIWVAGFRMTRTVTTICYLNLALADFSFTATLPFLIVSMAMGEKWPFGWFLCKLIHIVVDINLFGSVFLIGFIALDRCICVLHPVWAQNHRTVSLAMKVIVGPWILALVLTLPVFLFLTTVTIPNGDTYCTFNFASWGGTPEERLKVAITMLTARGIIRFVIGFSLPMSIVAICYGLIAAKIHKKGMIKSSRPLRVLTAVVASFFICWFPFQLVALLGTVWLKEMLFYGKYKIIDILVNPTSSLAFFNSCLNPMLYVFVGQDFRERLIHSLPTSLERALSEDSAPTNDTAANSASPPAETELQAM
# Description: In addition to the agonists and antagonists shown in TABLE 4, SHAAGtide polypeptides were also shown to modulate FPRL1 activity. The term “SHAAGtide” includes SHAAGtide polypeptides (shown in TABLE 5), including isolated or purified SHAAGtide polypeptides, proteins or biologically active fragments separated from or recovered from a component of its natural environment; and polynucleotides shown in TABLE 6, truncated variants and other variants thereof, including naturally occurring allelic variants, derivatives and analogs. SHAAGtide polypeptides are derived from the alternatively spliced variant of CKβ8, namely CKβ8-1. CKβ8-1 is a 116 amino acid long polypeptide that includes the sequence of SHAAGtide polypeptides. […]
# Female BALB/C mice = assay type: in vivo; settings: for levels of antigen specific IgA antibodies: mucosal samples, day 21, intranasal rPA plus adjuvant; for levels of antigen specific IgG antibodies: serum, day 21, intranasal rPA 10 μg plus adjuvant, vs rPA alone
Molecule,FPRL1 Activity (FPRL1),levels of antigen specific IgA antibodies (Female BALB/C mice),levels of antigen specific IgG antibodies (Female BALB/C mice)
WRRKIGPQM [CCXP9],Low activity,,
MLWRRKIGPQMTLSHAAY [CCXP6],high,,
MLWRRKIGPQMT [CCXP5],Moderate,,
MLWRRKIGPQMTLSHAAG [CCXP1],sequence high,did not induce significant levels,did not induce significant levels
"Trp-Lys-Tyr-Met-Val-D-Met-CONH2 (WKYMV[dM]-NH2) [W-tide, WKYMV-(d-Met)-CONH2, synthetic hexapeptide ligand of FPRL1, reference compound]",,did not induce significant levels,did not induce significant levels
IGPQMTLSHAAG [CCXP4],Low,,
WRRKIG [CCXP10],Low activity,,
"5′-TCCATGACGTTCCTGATGCT-3′ (chemistry not given here) [CpG, CpG oligonucleotide, ligand for TLR9, reference compound]",,did not induce significant levels,did not induce significant levels
"mJE: chemokine mJE (SEQ ID NO: 60), used as chemoattractant adjuvant",,did not induce significant levels,did not induce significant levels
MLWRRKIGPQMTLSH [CCXP3],High,,
WRRKIGPQMTLSHAAG [CCXP7],Low activity,,
RRKIGPQMTLSHAAG [CCXP2],Low,,
LWRRKIGPQMTLSH [CCXP11],Moderate,,
MLWRRKIGPQM [CCXP8],Moderate,,
B1,,did not induce significant levels,did not induce significant levels
